From patent US20240026343A1, “METHOD FOR SCREENING DIMERIZED CYCLIC PEPTIDE” (AJINOMOTO CO., INC., priority 2021, published 2024) come the findings set out here.

The target in test [1] is T1, Recombinant Human Erythropoietin R Fc Chimera Protein (Homo sapiens, UniProt P19235).
T1 construct: purchased R&D systems 963-ER-50
As to the kind of experiment: Ribosome display enrichment on immobilized EPO receptor (Example 5). It is filed as binding. To be noted: starting DNA mix 1:50:50 (EMP:aMD4dY:TPO fusions); one round; FIGS. 17, 18. As for the experimental part:
The DNA sequence of EMP-Jun-cys-N11-SecM-GS3 was prepared by PCR. Two types of DNA sequences, aMD4dY-Jun-cys-N11-SecM-GS3 and TPO-Jun-cys-N11-SecM-GS3, prepared in Example 4 were used. A DNA mix was prepared by mixing DNAs, EMP-Jun-cys-N11-SecM-GS3, aMD4dY-Jun-cys-N11-SecM-GS3, and TPO-Jun-cys-N11-SecM-GS3, at a ratio of 1:50:50.
DNA transcription was carried out using T7 RNA polymerase. T7 RNA polymerase (Takara Bio, 2540A) and rNTPs (Promega, E6000) as well were used for transcription. 11 μL of ultrapure water, 2 μL of 10×T7 RNA polymerase buffer, 2 μL of 50 mM DTT, 2 μL of 25 mM rNTPs, 1 μL of T7 RNA polymerase, and 1 μL of DNA mix were mixed and reacted in a constant temperature bath at 37° C. for 6 hours. A 50 mM EDTA solution was then added. It was purified with RNA Clean & Concentrator 5 (ZYMO […], R1015) and made into a 2 μM mRNA mix.
PURExpress ΔRF1,2,3 kit was used for translation expression of the prepared library. 2 μL of solution A, 1.5 μL of solution B, 1 μL of mRNA mix, and 0.5 μL of ultrapure water were mixed and cultured in a 37° C. constant temperature bath for 2 hours. […]
Three types of DNAs, EMP-Jun-cys-N11-SecM-GS3, aMD4dY-Jun-cys-N11-SecM-GS3, and TPO-Jun-cys-N11-SecM-GS3, along with DNA mix and DNA mix2 were evaluated with 2100 Bioanalyzer (Agilent technologies). […]

A further test deals with EpoR (Homo sapiens, UniProt P19235). The experiment in a line: PathHunter eXpress EpoR-JAK2 Functional Assay of EMP-leucine zipper fusion dimer (Example 3). Type of test: cell-based. The settings on record: diluted cell-free expression reaction solution; 3 hours stimulation; No DNA negative control; FIG. 14. As to the method:
The ability of the EMP-leucine zipper fusion dimer to activate EpoR was assessed using PathHunter® eXpress EpoR-JAK2 Functional Assay Kit (DiscoveRx).
Cells for EPO activity evaluation contained in the PathHunter® eXpress EpoR-JAK2 Functional Assay Kit were seeded in a 96-well plate and cultured for 24 hours at 37° C. under 5% CO2. A cell-free expression reaction solution containing the EMP-leucine zipper fusion were diluted and added to the cells. […] To the cells stimulated at room temperature for 3 hours, the prepared Substrate Reagent was added and incubated for 60 minutes. Chemiluminescence intensity was quantified with a Nivo plate reader (Perkin Elmer).

The test system of a further test is HGF-Erk-SRE pathway. The experiment in a line: SRE luciferase reporter assay of cell-free translation products from ribosome display DNAs (Example 4). Type of test: cell-based. To be noted: HEK293E cells with SRE reporter; cell-free translation product at 25- to 625-fold dilution; HGF comparator; FIG. 16. As to the method: For cell-free translation, to 20 ng of each DNA, 2.5 μL of Solution I, 0.25 μL of Solution II, 0.5 μL of Solution III, and 1.75 μL of water were added, and the mixture was incubated at 37° C. for 6 hours to carry out the translation reaction.
Reporter assays were carried out as follows. To 25 μL of Opti-MEM medium (Thermo Fisher Scientific), 0.6 μL of Attractene Transfection Reagent (QIAGEN) was added and incubated at room temperature for 5 minutes. To the above mixed solution, a mixed solution of 25 μL of Opti-MEM and 1 μL of SRE reporter vector (QIAGEN) was added and incubated at room temperature for 20 minutes. This mixed solution was added to a 96-well plate, HEK293E cells were seeded thereon at 40,000 cells/well, and incubated overnight at 37° C. in a 5% CO2 incubator. After transfection, all the culture supernatant was removed, and 100 μL of Opti-MEM medium (evaluation basal medium), containing 0.5% FBS (Thermo Fisher Scientific), 1% non-essential amino acid solution (Thermo Fisher Scientific), and penicillin-streptomycin (Nacalai Tesque), was added thereto, which was cultured at 37° C. for 4 hours to starve the cells.
To the evaluation basal medium, 0 to 100 ng/mL HGF was added, or the above cell-free expression reaction solution was added at a 25- to 625-fold dilution with respect to the medium, and 100 μL of the evaluation basal medium was added to the cells. The cells were stimulated by culturing overnight at 37° C. in a 5% CO2 incubator.
Dual-Luciferase Reporter Assay System (Promega) was used for signal intensity detection. […] Activation of the HGF-Erk-SRE pathway was quantified by detecting Firefly luciferase luminescence from cell lysates with a plate reader. Subsequently, 50 μL of Glo & Stop reagent solution was added, and after 10 minutes, luminescence of Renilla luciferase, an internal standard, was detected to quantify the cell count. The signal activity of each sample was quantified as SRE activity=(luminescence intensity of Firefly luciferase)/(luminescence intensity of Renilla luciferase). […]
Background: In a reporter assay the amount or activity of a reporter protein is the signal.

Test [2] deals with T2, Recombinant Human HGFR/c-MET Fc Chimera Protein (Homo sapiens, UniProt P08581).
T2 construct: purchased R&D systems 8614-MT-100
The experiment in a line: Ribosome display enrichment on immobilized c-Met (Example 4). It is filed as binding. To be noted: starting DNA mix 1:50:50 (aMD4dY:TPO:EMP′ fusions); one round; FIGS. 15, 16. As to the method:
DNA transcription was carried out using T7 RNA polymerase. T7 RNA polymerase (Takara Bio, 2540A) and rNTPs (Promega, E6000) were used for transcription. 11 μL of ultrapure water, 2 μL of 10×T7 RNA polymerase buffer, 2 μL of 50 mM DTT, 2 μL of 25 mM rNTPs, 1 μL of T7 RNA polymerase, and 1 μL of DNA mix were mixed and reacted in a constant temperature bath at 37° C. for 6 hours. A 50 mM EDTA solution was then added. It was purified with RNA Clean & Concentrator 5 (ZYMO […], R1015) and made into a 2 μM mRNA mix.
PURExpress ΔRF1,2,3 kit was used for translation expression of the prepared library. 2 μL of solution A, 1.5 μL of solution B, 1 μL of mRNA mix, and 0.5 μL of ultrapure water were mixed and cultured in a 37° C. constant temperature bath for 2 hours. After the reaction, the reaction vessel was placed on ice, and 20 μL of ice-cold 1×TBSM-T buffer (50 mM Tris-HCl, 150 mM NaCl, 50 mM MgCl2, 0.05% Tween 20) was added to the formed ribosome-cyclic peptide-leucine zipper fusion-mRNA complex. This complex reaction solution was used in (4-7) below.
Immobilization of target molecules to magnetic beads was carried out. […]

T2 sequence (P08581 with tags, fused parts or gaps limits assumed): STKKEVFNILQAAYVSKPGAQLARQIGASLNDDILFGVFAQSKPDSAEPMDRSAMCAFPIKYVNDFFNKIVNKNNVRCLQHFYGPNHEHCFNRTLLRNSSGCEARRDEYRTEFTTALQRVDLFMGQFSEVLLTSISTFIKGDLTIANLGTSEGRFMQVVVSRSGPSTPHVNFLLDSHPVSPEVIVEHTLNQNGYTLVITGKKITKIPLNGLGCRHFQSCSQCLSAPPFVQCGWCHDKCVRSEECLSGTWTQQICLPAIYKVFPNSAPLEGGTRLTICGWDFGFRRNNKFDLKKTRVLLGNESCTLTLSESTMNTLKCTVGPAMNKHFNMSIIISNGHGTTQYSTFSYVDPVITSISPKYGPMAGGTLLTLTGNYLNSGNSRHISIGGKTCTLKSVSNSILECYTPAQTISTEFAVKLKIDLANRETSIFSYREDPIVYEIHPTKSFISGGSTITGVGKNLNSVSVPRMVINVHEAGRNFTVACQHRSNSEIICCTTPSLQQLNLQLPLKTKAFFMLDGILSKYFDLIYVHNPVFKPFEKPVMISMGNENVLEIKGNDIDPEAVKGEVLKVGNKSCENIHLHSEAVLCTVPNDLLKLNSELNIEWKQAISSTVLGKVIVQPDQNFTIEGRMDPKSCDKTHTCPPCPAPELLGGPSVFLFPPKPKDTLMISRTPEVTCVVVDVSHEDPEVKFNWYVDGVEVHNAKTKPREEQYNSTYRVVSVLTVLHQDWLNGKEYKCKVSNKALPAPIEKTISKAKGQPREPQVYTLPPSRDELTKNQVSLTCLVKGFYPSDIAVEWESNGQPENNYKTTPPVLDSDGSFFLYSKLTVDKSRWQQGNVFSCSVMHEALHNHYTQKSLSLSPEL
T2 sequence (P08581 25-307 limits assumed, change not shown): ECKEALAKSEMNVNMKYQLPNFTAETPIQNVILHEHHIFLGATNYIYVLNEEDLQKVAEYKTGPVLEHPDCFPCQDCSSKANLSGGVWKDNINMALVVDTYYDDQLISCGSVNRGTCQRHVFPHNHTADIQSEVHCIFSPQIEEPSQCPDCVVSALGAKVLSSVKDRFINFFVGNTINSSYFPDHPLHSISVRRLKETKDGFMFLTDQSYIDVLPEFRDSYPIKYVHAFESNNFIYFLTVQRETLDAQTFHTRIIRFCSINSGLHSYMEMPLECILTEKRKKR
Chain of EpoR (P19235 25-508): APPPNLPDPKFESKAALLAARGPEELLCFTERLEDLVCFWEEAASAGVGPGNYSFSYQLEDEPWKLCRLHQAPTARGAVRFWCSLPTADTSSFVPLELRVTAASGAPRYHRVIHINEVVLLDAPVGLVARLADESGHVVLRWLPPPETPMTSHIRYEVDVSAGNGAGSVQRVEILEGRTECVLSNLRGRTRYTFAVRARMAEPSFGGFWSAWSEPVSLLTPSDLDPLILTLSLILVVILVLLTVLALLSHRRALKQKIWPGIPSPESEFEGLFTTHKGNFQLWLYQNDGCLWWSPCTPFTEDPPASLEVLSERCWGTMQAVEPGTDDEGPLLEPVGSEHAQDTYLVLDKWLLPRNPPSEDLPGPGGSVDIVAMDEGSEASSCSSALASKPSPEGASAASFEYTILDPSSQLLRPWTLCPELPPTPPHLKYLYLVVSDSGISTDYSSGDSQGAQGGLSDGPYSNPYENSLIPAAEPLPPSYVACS
Chain of EpoR (O60674 whole entry partner, the tested form may be a part): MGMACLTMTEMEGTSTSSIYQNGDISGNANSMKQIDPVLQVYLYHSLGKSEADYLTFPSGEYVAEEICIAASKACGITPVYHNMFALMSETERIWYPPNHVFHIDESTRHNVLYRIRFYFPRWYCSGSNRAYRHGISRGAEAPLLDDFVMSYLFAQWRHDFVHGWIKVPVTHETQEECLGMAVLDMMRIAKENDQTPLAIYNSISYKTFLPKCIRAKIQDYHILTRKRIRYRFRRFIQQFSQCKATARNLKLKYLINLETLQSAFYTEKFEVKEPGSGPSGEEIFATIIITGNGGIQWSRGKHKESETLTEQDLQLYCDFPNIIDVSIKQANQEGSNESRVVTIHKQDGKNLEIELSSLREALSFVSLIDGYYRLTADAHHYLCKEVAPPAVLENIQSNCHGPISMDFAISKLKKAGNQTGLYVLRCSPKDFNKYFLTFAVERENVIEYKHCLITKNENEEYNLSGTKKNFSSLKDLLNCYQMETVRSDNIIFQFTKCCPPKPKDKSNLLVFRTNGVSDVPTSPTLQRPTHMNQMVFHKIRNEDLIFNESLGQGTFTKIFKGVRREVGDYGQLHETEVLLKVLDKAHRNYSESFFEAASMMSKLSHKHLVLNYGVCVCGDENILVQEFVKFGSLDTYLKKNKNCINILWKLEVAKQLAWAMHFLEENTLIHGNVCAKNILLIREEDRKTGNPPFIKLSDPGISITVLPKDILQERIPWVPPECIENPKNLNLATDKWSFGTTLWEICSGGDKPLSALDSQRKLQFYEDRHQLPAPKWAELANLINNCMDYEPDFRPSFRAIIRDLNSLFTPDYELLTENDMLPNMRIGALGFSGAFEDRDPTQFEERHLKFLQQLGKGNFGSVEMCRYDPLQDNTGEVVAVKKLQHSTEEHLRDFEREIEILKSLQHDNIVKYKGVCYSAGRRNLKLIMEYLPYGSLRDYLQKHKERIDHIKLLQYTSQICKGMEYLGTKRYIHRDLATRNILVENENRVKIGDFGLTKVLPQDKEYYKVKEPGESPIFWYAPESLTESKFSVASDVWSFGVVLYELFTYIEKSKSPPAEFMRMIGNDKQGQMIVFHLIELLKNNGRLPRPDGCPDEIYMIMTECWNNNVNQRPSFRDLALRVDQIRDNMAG
T1 sequence (P19235 with tags, fused parts or gaps limits assumed): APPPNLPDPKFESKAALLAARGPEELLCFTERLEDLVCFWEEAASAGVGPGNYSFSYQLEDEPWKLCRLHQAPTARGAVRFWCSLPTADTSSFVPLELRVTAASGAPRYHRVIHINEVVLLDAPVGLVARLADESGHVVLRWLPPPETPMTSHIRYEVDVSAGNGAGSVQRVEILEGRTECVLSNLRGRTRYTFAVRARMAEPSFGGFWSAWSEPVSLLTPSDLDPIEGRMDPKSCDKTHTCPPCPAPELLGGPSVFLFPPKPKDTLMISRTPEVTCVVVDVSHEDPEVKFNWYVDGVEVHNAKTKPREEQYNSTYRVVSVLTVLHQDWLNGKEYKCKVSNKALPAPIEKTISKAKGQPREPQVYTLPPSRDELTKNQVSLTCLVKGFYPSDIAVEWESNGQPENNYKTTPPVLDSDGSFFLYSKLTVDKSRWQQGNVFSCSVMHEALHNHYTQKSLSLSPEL

B1: EMP-Jun-cys-N11-SecM-GS3: EMP-leucine zipper fusion for ribosome display, SEQ ID NO: 87 (protein)
chain: MAETGGLYACHMGPMTWVCQPLRGAAPAAPAPAAGGRIARLEEKVKTLKAQNSELASTANMLREQVAQLKQKVMNGCGGKDHLIHNHHKHEHAHAEHLFSTPVWISQAQGIRAGGSGSGS
modifications: EMP-Jun-cys-N11-SecM-GS3; DISULFID 10..19 Disulfide bridge between Cys-10 and Cys-19
For the molecule B1, the “enrichment in DNA mix2 after ribosome display against EPO receptor” value in test [1] was “enriched”.

B2: EMP-PA8-cys-Jun: EMP-leucine zipper fusion, SEQ ID NO: 67 (protein)
chain: MGGLYACHMGPMTWVCQPLRGAAPAAPAPAAGCGGRIARLEEKVKTLKAQNSELASTANMLREQVAQLKQKVMN
modifications: EMP-PA8-cys-Jun; DISULFID 7..16 Disulfide bridge between Cys-7 and Cys-16
Turning to B2, the “ability to activate EpoR (relative receptor activity, chemiluminescence)” value in the test with EpoR is reported as “activated EpoR”.

B3: aMD4dY-Jun-cys-N11-SecM-GS3: c-Met binding cyclic peptide-leucine zipper fusion for ribosome display, SEQ ID NO: 71 (protein)
chain: MAETCRQFNRRTHEVWNLDCGAAPAAPAPAAGGRIARLEEKVKTLKAQNSELASTANMLREQVAQLKQKVMNGCGGKDHLIHNHHKHEHAHAEHLFSTPVWISQAQGIRAGGSGSGS
modifications: aMD4dY-Jun-cys-N11-SecM-GS3; DISULFID 5..20 Disulfide bridge between Cys-5 and Cys-20
In the case of B3, the “relative SRE reporter activity (relative receptor activity)” value with HGF-Erk-SRE pathway was “showed activity”. Besides, the “enrichment in DNA mix2 after ribosome display against c-Met” value in test [2] is recorded as “enriched”.
